Measured values reported in the supplement of paper PMC10567573.

B1: EPB41L3 (parent)
chain: SELGDYDPDECGSDYISEFRFAPN

Variants of: B1
Assay: protein stability index of a GFP-peptide fusion (GPS, HEK-293T) (PSI 1-6); higher = more stable
Settings: c terminus: a fixed tail appended
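Also: lentivirally expressed fusions sorted by FACS into six bins by GFP to DsRed ratio, PSI derived from sequencing read proportions per bin multiplied by bin number.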

Protein stability index of substitutions, site by site:
G4: C 1.94 | D 2.35 | E 2.43 | A 2.56 | K 2.18 | H 1.67 | Q 2 | I 1.95 | F 1.79 | S 2.19 | L 2 | N 1.9 | M 2.12 | R 2.67 | Y 2.12 | P 2.23 | T 2.39 | V 2.06 | W 1.7
D7: N 1.68 | L 1.56 | K 1.14 | T 1.57 | A 1.91 | P 2.31 | R 2.44 | H 2.14 | C 1.71 | E 3.01 | G 2.29 | S 1.47 | M 1.93 | F 2.29 | Y 1.7 | Q 1.37 | I 1.65 | V 1.61 | W 2.1
Y6: M 1.98 | V 2.1 | L 2.19 | R 1.84 | W 2.31 | P 2.13 | F 2.01 | D 2.49 | N 2.15 | A 2.46 | G 2.48 | E 2.37 | Q 2.11 | S 2.11 | T 1.97 | I 2.06 | H 1.73 | K 2.17 | C 2.27
D9: E 2.4 | N 1.55 | Q 2.25 | I 1.32 | C 1.92 | A 1.93 | G 2.03 | S 2.01 | F 1.95 | M 2.01 | L 1.84 | K 2.05 | R 2.12 | H 1.92 | P 1.41
E2: M 1.81 | I 1.7 | Y 2.07 | G 1.03 | Q 1.9 | F 2.14 | H 1.9 | A 1.61 | S 1.68 | W 1.77 | R 1.85 | P 2.54 | K 1.94 | D 1.79 | C 2.19 | N 2.03 | T 1.56 | V 2.04 | L 1.77
L3: Y 1.9 | T 2.2 | V 2.33 | G 2.05 | F 2.36 | C 2.15 | A 2.05 | I 2.02 | E 1.88 | P 2.27 | M 2.02 | K 1.74 | S 2.67 | R 2.03 | Q 2.46 | D 2.66 | H 1.74 | N 2.22 | W 1.91
S1: R 1.85 | G 1.99 | T 2.5 | I 1.71 | C 1.88 | E 2.29 | W 1.53 | H 1.67 | A 1.81 | F 1.86 | K 2.35 | V 2.25 | D 2.43 | M 2.8 | N 1.81 | Y 3.03 | Q 2.87 | L 2.02 | P 1.89
P8: F 2.37 | I 1.77 | T 1.92 | H 2.1 | D 2.13 | L 2.26 | Y 1.82 | M 2.08 | N 2.19 | S 2.29 | C 1.51 | E 2.29 | G 2.06 | W 1.76 | A 2.44 | Q 2.03 | R 2.1 | V 1.9 | K 2.11
D5: P 2.35 | S 1.75 | A 1.96 | H 1.79 | Y 2.09 | R 2.05 | Q 1.75 | V 1.51 | I 1.87 | C 2.06 | M 1.71 | E 1.7 | G 2.26 | T 2.03 | W 1.74 | N 1.99 | F 1.68 | L 1.92 | K 2.17
